From patent publication US20140087995A1 (published 2014)
Numbered stars: 1 amine (or outer) side, 2 acyl side, 3 side chain; on linkers, the order of the positions; unused ones are H or OH. Bridge positions count the residues as written; N and C are the ends. Side chains are listed from the residue outwards. Ends that are not written are not given here. * marks the point of attachment. C20 diacid = O=C(O)CCCCCCCCCCCCCCCCCCC(=O)*; γGlu = O=C(O)[C@H](CCC(=O)[*:2])N[*:1]; AEEA = NCCOCCOCC(=O)O

T1: human amylin 3(a) receptor (human calcitonin receptor co-expressed with RAMP-3) (human, UniProt P30988 25-474; O60896 24-148, limits assumed)
T1 sequence (looked up) 1: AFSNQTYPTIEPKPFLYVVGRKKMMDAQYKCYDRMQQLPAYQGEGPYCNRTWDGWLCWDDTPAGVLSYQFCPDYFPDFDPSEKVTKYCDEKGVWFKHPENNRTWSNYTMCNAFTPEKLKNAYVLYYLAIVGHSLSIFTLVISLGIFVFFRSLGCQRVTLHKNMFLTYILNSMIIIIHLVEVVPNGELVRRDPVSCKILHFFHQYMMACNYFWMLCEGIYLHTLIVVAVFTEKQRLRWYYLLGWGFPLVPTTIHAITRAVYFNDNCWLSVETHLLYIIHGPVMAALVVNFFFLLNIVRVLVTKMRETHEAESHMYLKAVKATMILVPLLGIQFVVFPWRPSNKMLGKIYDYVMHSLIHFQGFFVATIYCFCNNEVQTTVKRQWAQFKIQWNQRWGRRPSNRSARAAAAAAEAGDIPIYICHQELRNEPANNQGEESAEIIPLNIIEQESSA
T1 sequence (looked up) 2: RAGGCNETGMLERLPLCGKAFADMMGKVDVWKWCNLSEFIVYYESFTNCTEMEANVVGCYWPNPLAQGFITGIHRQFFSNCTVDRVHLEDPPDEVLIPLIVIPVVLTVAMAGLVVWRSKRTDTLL

B1: N^ε1-[2-[2-[2-[[2-[2-[2-[[(4S)-4-carboxy-4-(19-carboxynonadecanoylamino)butanoyl]amino]ethoxy]ethoxy]acetyl]amino]ethoxy]ethoxy]acetyl]-[Arg17,Pro21,Pro27,Glu35 … (peptide)
peptide: K([AEEA-AEEA-γGlu-C20 diacid])CNTATCATQRLANFLRHSSPNFGAIPSSTNVGSETY-NH2
modifications: disulfide 2-7; N-terminus assumed
SMILES: CC[C@H](C)[C@H](NC(=O)[C@H](C)NC(=O)CNC(=O)[C@H](Cc1ccccc1)NC(=O)[C@H](CC(N)=O)NC(=O)[C@@H]1CCCN1C(=O)[C@H](CO)NC(=O)[C@H](CO)NC(=O)[C@H](Cc1c[nH]cn1)NC(=O)[C@H](CCCNC(=N)N)NC(=O)[C@H](CC(C)C)NC(=O)[C@H](Cc1ccccc1)NC(=O)[C@H](CC(N)=O)NC(=O)[C@H](C)NC(=O)[C@H](CC(C)C)NC(=O)[C@H](CCCNC(=N)N)NC(=O)[C@H](CCC(N)=O)NC(=O)[C@@H](NC(=O)[C@H](C)NC(=O)[C@@H]1CSSC[C@H](NC(=O)[C@@H](N)CCCCNC(=O)COCCOCCNC(=O)COCCOCCNC(=O)CC[C@H](NC(=O)CCCCCCCCCCCCCCCCCCC(=O)O)C(=O)O)C(=O)N[C@@H](CC(N)=O)C(=O)N[C@@H]([C@@H](C)O)C(=O)N[C@@H](C)C(=O)N[C@@H]([C@@H](C)O)C(=O)N1)[C@@H](C)O)C(=O)N1CCC[C@H]1C(=O)N[C@@H](CO)C(=O)N[C@@H](CO)C(=O)N[C@H](C(=O)N[C@@H](CC(N)=O)C(=O)N[C@H](C(=O)NCC(=O)N[C@@H](CO)C(=O)N[C@@H](CCC(=O)O)C(=O)N[C@H](C(=O)N[C@@H](Cc1ccc(O)cc1)C(N)=O)[C@@H](C)O)C(C)C)[C@@H](C)O
notes: also called compound 25
B2: N^ε1-[2-[2-[2-[[(4S)-4-carboxy-4-(19-carboxynonadecanoylamino)butanoyl]amino]ethoxy]ethoxy]acetyl]-[Arg17,Pro21,Pro27,Glu35]-h-amylin (peptide)
peptide: K([AEEA-γGlu-C20 diacid])CNTATCATQRLANFLRHSSPNFGAIPSSTNVGSETY-NH2
modifications: disulfide 2-7; N-terminus assumed
SMILES: CC[C@H](C)[C@H](NC(=O)[C@H](C)NC(=O)CNC(=O)[C@H](Cc1ccccc1)NC(=O)[C@H](CC(N)=O)NC(=O)[C@@H]1CCCN1C(=O)[C@H](CO)NC(=O)[C@H](CO)NC(=O)[C@H](Cc1c[nH]cn1)NC(=O)[C@H](CCCNC(=N)N)NC(=O)[C@H](CC(C)C)NC(=O)[C@H](Cc1ccccc1)NC(=O)[C@H](CC(N)=O)NC(=O)[C@H](C)NC(=O)[C@H](CC(C)C)NC(=O)[C@H](CCCNC(=N)N)NC(=O)[C@H](CCC(N)=O)NC(=O)[C@@H](NC(=O)[C@H](C)NC(=O)[C@@H]1CSSC[C@H](NC(=O)[C@@H](N)CCCCNC(=O)COCCOCCNC(=O)CC[C@H](NC(=O)CCCCCCCCCCCCCCCCCCC(=O)O)C(=O)O)C(=O)N[C@@H](CC(N)=O)C(=O)N[C@@H]([C@@H](C)O)C(=O)N[C@@H](C)C(=O)N[C@@H]([C@@H](C)O)C(=O)N1)[C@@H](C)O)C(=O)N1CCC[C@H]1C(=O)N[C@@H](CO)C(=O)N[C@@H](CO)C(=O)N[C@H](C(=O)N[C@@H](CC(N)=O)C(=O)N[C@H](C(=O)NCC(=O)N[C@@H](CO)C(=O)N[C@@H](CCC(=O)O)C(=O)N[C@H](C(=O)N[C@@H](Cc1ccc(O)cc1)C(N)=O)[C@@H](C)O)C(C)C)[C@@H](C)O
notes: also called compound 26
B3: N^ε1-[2-[2-[2-[[(4S)-4-carboxy-4-(19-carboxynonadecanoylamino)butanoyl]amino]ethoxy]ethoxy]acetyl]-[Ala14,Arg17,Pro21,Pro27,Pro31]-h-amylin (peptide)
peptide: K([AEEA-γGlu-C20 diacid])CNTATCATQRLAAFLRHSSPNFGAIPSSTPVGSNTY-NH2
modifications: disulfide 2-7; N-terminus assumed
SMILES: CC[C@H](C)[C@H](NC(=O)[C@H](C)NC(=O)CNC(=O)[C@H](Cc1ccccc1)NC(=O)[C@H](CC(N)=O)NC(=O)[C@@H]1CCCN1C(=O)[C@H](CO)NC(=O)[C@H](CO)NC(=O)[C@H](Cc1c[nH]cn1)NC(=O)[C@H](CCCNC(=N)N)NC(=O)[C@H](CC(C)C)NC(=O)[C@H](Cc1ccccc1)NC(=O)[C@H](C)NC(=O)[C@H](C)NC(=O)[C@H](CC(C)C)NC(=O)[C@H](CCCNC(=N)N)NC(=O)[C@H](CCC(N)=O)NC(=O)[C@@H](NC(=O)[C@H](C)NC(=O)[C@@H]1CSSC[C@H](NC(=O)[C@@H](N)CCCCNC(=O)COCCOCCNC(=O)CC[C@H](NC(=O)CCCCCCCCCCCCCCCCCCC(=O)O)C(=O)O)C(=O)N[C@@H](CC(N)=O)C(=O)N[C@@H]([C@@H](C)O)C(=O)N[C@@H](C)C(=O)N[C@@H]([C@@H](C)O)C(=O)N1)[C@@H](C)O)C(=O)N1CCC[C@H]1C(=O)N[C@@H](CO)C(=O)N[C@@H](CO)C(=O)N[C@H](C(=O)N1CCC[C@H]1C(=O)N[C@H](C(=O)NCC(=O)N[C@@H](CO)C(=O)N[C@@H](CC(N)=O)C(=O)N[C@H](C(=O)N[C@@H](Cc1ccc(O)cc1)C(N)=O)[C@@H](C)O)C(C)C)[C@@H](C)O
notes: also called compound 72
B4: N^ε1-[2-[2-[2-[[(4S)-4-carboxy-4-(19-carboxynonadecanoylamino)butanoyl]amino]ethoxy]ethoxy]acetyl]-[Arg14,Arg17,Pro21,Pro27,Pro31]-h-amylin (peptide)
peptide: K([AEEA-γGlu-C20 diacid])CNTATCATQRLARFLRHSSPNFGAIPSSTPVGSNTY-NH2
modifications: disulfide 2-7; N-terminus assumed
SMILES: CC[C@H](C)[C@H](NC(=O)[C@H](C)NC(=O)CNC(=O)[C@H](Cc1ccccc1)NC(=O)[C@H](CC(N)=O)NC(=O)[C@@H]1CCCN1C(=O)[C@H](CO)NC(=O)[C@H](CO)NC(=O)[C@H](Cc1c[nH]cn1)NC(=O)[C@H](CCCNC(=N)N)NC(=O)[C@H](CC(C)C)NC(=O)[C@H](Cc1ccccc1)NC(=O)[C@H](CCCNC(=N)N)NC(=O)[C@H](C)NC(=O)[C@H](CC(C)C)NC(=O)[C@H](CCCNC(=N)N)NC(=O)[C@H](CCC(N)=O)NC(=O)[C@@H](NC(=O)[C@H](C)NC(=O)[C@@H]1CSSC[C@H](NC(=O)[C@@H](N)CCCCNC(=O)COCCOCCNC(=O)CC[C@H](NC(=O)CCCCCCCCCCCCCCCCCCC(=O)O)C(=O)O)C(=O)N[C@@H](CC(N)=O)C(=O)N[C@@H]([C@@H](C)O)C(=O)N[C@@H](C)C(=O)N[C@@H]([C@@H](C)O)C(=O)N1)[C@@H](C)O)C(=O)N1CCC[C@H]1C(=O)N[C@@H](CO)C(=O)N[C@@H](CO)C(=O)N[C@H](C(=O)N1CCC[C@H]1C(=O)N[C@H](C(=O)NCC(=O)N[C@@H](CO)C(=O)N[C@@H](CC(N)=O)C(=O)N[C@H](C(=O)N[C@@H](Cc1ccc(O)cc1)C(N)=O)[C@@H](C)O)C(C)C)[C@@H](C)O
notes: also called compound 64
B5: N^ε1-[2-[2-[2-[[(4S)-4-carboxy-4-(19-carboxynonadecanoylamino)butanoyl]amino]ethoxy]ethoxy]acetyl]-[Arg17,Pro21,Pro27,Arg34]-h-amylin (peptide)
peptide: K([AEEA-γGlu-C20 diacid])CNTATCATQRLANFLRHSSPNFGAIPSSTNVGRNTY-NH2
modifications: disulfide 2-7; N-terminus assumed
SMILES: CC[C@H](C)[C@H](NC(=O)[C@H](C)NC(=O)CNC(=O)[C@H](Cc1ccccc1)NC(=O)[C@H](CC(N)=O)NC(=O)[C@@H]1CCCN1C(=O)[C@H](CO)NC(=O)[C@H](CO)NC(=O)[C@H](Cc1c[nH]cn1)NC(=O)[C@H](CCCNC(=N)N)NC(=O)[C@H](CC(C)C)NC(=O)[C@H](Cc1ccccc1)NC(=O)[C@H](CC(N)=O)NC(=O)[C@H](C)NC(=O)[C@H](CC(C)C)NC(=O)[C@H](CCCNC(=N)N)NC(=O)[C@H](CCC(N)=O)NC(=O)[C@@H](NC(=O)[C@H](C)NC(=O)[C@@H]1CSSC[C@H](NC(=O)[C@@H](N)CCCCNC(=O)COCCOCCNC(=O)CC[C@H](NC(=O)CCCCCCCCCCCCCCCCCCC(=O)O)C(=O)O)C(=O)N[C@@H](CC(N)=O)C(=O)N[C@@H]([C@@H](C)O)C(=O)N[C@@H](C)C(=O)N[C@@H]([C@@H](C)O)C(=O)N1)[C@@H](C)O)C(=O)N1CCC[C@H]1C(=O)N[C@@H](CO)C(=O)N[C@@H](CO)C(=O)N[C@H](C(=O)N[C@@H](CC(N)=O)C(=O)N[C@H](C(=O)NCC(=O)N[C@@H](CCCNC(=N)N)C(=O)N[C@@H](CC(N)=O)C(=O)N[C@H](C(=O)N[C@@H](Cc1ccc(O)cc1)C(N)=O)[C@@H](C)O)C(C)C)[C@@H](C)O
notes: also called compound 78
B6: N^ε1-[2-[2-[2-[[(4S)-4-carboxy-4-(19-carboxynonadecanoylamino)butanoyl]amino]ethoxy]ethoxy]acetyl]-[Arg14,Arg17,Pro21,Pro27]-h-amylin (peptide)
peptide: K([AEEA-γGlu-C20 diacid])CNTATCATQRLARFLRHSSPNFGAIPSSTNVGSNTY-NH2
modifications: disulfide 2-7; N-terminus assumed
SMILES: CC[C@H](C)[C@H](NC(=O)[C@H](C)NC(=O)CNC(=O)[C@H](Cc1ccccc1)NC(=O)[C@H](CC(N)=O)NC(=O)[C@@H]1CCCN1C(=O)[C@H](CO)NC(=O)[C@H](CO)NC(=O)[C@H](Cc1c[nH]cn1)NC(=O)[C@H](CCCNC(=N)N)NC(=O)[C@H](CC(C)C)NC(=O)[C@H](Cc1ccccc1)NC(=O)[C@H](CCCNC(=N)N)NC(=O)[C@H](C)NC(=O)[C@H](CC(C)C)NC(=O)[C@H](CCCNC(=N)N)NC(=O)[C@H](CCC(N)=O)NC(=O)[C@@H](NC(=O)[C@H](C)NC(=O)[C@@H]1CSSC[C@H](NC(=O)[C@@H](N)CCCCNC(=O)COCCOCCNC(=O)CC[C@H](NC(=O)CCCCCCCCCCCCCCCCCCC(=O)O)C(=O)O)C(=O)N[C@@H](CC(N)=O)C(=O)N[C@@H]([C@@H](C)O)C(=O)N[C@@H](C)C(=O)N[C@@H]([C@@H](C)O)C(=O)N1)[C@@H](C)O)C(=O)N1CCC[C@H]1C(=O)N[C@@H](CO)C(=O)N[C@@H](CO)C(=O)N[C@H](C(=O)N[C@@H](CC(N)=O)C(=O)N[C@H](C(=O)NCC(=O)N[C@@H](CO)C(=O)N[C@@H](CC(N)=O)C(=O)N[C@H](C(=O)N[C@@H](Cc1ccc(O)cc1)C(N)=O)[C@@H](C)O)C(C)C)[C@@H](C)O
notes: also called compound 82

Target: T1, human amylin 3(a) receptor (human …)
Assay: cell-based or functional assay

Binder | Ratio hCT/hAmylin funct. (hCTR EC50 over hAmylin-R EC50) | hAmylin-R funct. EC50 (pM)
B1 | 46.2 | 217
B2 | 29.9 | 212
B3 | 44.9 | 106
B4 | 60.7 | 378
B5 | 25.8 | 316
B6 | 59.2 | 215
